T1: Smc3 K1004C E1155Q (S. cerevisiae, UniProt P47037 1-1230, K1004C | E1155Q)
T1 construct: Smc3, S. cerevisiae; also called EQ mutant version of Smc3^K1004C; source: S. cerevisiae W303, ectopically expressed, late G1 arrested cells, whole-cell extract
T1 sequence (looked up): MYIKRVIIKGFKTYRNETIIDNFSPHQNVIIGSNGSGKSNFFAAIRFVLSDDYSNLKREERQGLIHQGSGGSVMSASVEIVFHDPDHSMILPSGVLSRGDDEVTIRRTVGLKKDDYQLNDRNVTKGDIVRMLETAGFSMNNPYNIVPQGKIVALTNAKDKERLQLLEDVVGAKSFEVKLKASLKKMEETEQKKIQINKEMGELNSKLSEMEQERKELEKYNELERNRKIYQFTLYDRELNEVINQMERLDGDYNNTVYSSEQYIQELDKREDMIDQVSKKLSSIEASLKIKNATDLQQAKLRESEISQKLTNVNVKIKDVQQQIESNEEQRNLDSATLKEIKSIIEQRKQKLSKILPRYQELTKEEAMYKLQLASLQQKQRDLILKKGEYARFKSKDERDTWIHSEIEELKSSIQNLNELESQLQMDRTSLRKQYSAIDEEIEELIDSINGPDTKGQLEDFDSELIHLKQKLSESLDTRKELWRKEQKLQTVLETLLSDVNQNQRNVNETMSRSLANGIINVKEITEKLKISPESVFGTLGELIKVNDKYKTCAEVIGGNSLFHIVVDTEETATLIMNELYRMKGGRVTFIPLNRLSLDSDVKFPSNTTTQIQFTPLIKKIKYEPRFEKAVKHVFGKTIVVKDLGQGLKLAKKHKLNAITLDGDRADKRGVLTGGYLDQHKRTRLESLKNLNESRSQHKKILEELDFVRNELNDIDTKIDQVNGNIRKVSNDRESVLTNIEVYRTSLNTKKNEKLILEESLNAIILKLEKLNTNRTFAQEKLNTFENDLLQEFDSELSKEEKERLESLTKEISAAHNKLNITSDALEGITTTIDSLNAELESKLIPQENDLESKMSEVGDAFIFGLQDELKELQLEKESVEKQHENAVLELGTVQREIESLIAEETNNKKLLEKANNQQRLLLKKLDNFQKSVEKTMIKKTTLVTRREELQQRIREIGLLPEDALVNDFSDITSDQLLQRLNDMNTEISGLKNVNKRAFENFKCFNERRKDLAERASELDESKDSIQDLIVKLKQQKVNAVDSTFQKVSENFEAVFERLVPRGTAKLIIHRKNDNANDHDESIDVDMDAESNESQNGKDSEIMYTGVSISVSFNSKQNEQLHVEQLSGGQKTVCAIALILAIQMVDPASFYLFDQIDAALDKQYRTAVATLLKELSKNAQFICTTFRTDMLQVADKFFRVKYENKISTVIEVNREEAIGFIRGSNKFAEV

T2: Smc3^QQ W483R R1008I Q67C (S. cerevisiae, UniProt P47037 1-1230, Q67C | K112Q | K113Q | W483R | R1008I)
T2 construct: Smc3, S. cerevisiae; also called smc3-QQ Q67C with R1008I and W483R; source: S. cerevisiae W303, late G1 arrested cells, whole-cell extract
T2 sequence (looked up): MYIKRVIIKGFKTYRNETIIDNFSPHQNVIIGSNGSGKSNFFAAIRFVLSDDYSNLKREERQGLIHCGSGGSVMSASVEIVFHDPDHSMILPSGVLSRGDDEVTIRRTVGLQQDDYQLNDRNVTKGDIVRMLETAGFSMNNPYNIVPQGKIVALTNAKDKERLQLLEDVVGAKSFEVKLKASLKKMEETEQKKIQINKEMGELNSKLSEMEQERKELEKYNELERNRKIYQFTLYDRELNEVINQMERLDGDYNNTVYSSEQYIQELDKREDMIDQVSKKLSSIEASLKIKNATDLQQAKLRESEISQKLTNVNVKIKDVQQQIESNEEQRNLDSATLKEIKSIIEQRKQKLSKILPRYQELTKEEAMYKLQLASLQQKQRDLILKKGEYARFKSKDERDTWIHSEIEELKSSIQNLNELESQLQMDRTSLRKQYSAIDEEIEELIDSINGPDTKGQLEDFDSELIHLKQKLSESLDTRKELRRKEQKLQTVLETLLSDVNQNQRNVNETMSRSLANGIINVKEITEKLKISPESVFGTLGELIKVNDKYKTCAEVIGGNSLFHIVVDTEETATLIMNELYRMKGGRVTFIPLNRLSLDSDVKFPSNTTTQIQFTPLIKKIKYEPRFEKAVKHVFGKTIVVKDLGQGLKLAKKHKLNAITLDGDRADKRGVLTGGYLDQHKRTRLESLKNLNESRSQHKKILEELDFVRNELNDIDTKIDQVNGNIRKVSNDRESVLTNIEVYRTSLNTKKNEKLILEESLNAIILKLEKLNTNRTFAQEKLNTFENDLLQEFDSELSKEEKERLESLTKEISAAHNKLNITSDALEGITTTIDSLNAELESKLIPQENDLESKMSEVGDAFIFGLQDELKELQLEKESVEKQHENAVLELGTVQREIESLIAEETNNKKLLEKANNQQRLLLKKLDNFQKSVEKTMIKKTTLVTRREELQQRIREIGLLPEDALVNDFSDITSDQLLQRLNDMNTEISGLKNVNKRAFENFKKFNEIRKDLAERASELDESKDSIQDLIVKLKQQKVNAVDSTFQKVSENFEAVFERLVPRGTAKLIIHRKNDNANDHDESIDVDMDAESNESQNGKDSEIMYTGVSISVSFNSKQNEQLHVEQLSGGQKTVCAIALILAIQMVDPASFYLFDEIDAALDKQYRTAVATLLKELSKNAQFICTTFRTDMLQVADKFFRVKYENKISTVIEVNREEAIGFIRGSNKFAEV


Key:
Smc3 K1004C E1155Q = target: T1, Smc3 K1004C E1155Q; assay: cross-linking; in vivo BMOE cross-link of cysteine pairs in yeast cells arrested in late G1 by non-degradable Sic1(9m); Scc1-PK immunoprecipitated, western blot, band intensities quantified; conditions: partners not purified
[1] = target: T2, Smc3^QQ W483R R1008I Q67C; assay: as above; conditions: partners not purified

fold change of the crosslink against wild-type Smc3 (K1004C) (Smc3 K1004C E1155Q) | crosslinking efficiency relative to wild type [1] | Binder
~10 fold | – | Scc2 D369C (natural protein, S. cerevisiae, UniProt Q04002 1-1493, looked up, Scc2, S. cerevisiae; source: S. cerevisiae W303, in vivo, whole-cell extract) MSYPGKDKNIPGRIIEALEDLPLSYLVPKDGLAALVNAPMRVSLPFDKTIFTSADDGRDVNINVLGTANSTTSSIKNEAEKERLVFKRPSNFTSSANSVDYVPTNFLEGLSPLAQSVLSTHKGLNDSINIEKKSEIVSRPEAKHKLESVTSNAGNLSFNDNSSNKKTKTSTGVTMTQANLAEQYLNDLKNILDIVGFDQNSAEIGNIEYWLQLPNKKFVLTTNCLTKLQMTIKNITDNPQLSNSIEITWLLRLLDVMVCNIKFSKSSLKMGLDDSMLRYIALLSTIVLFNIFLLGKNDSNLHRESYIMEPVNFLSDLIESLKILTIEYGSLKIEFDTFQEALELLPKYIRNGPFLDDNVTAKLVYIFSCLLMNNDIEATTNIQFQSFWDNVKRISSDILVSLFGSFDQQRGFIIEELLSHIEKLPTKRIQKKLRKVGNQNIYITDFTFTLMSMLENINCYSFCNQMKDIAPENIDLLKNEYKKQEEFLFNIVEHINDTILERFFKNPSALRYVIDNFVQDLLLLISSPQWPVTEKILSSLLKRLLSVYSPSMQVSANIETICLQLIGNIGSTIFDIKCSTRDHEDNNLIKMINYPETLPHFFKSFEECIAYNETIKCRRSATRFLWNLRLGTILILEEYTKDAKEQIITVDNELKKILEQIKDGGLGPELENREADFSTIKLDYFSILHAFELLNLYDPYLKLILSLLAKDKIKLRSTAIKCLSMLASKDKVILSNPMVKETIHRRLNDSSASVKDAILDLVSINSSYFEFYQQINNNYNDDSIMVRKHVLRINEKMYDETNDIVTKVYVIARILMKIEDEEDNIIDMARLILLNRWILKVHEVLDQPEKLKEISSSVLLVMSRVAIMNEKCSQLFDLFLNFYLLNKEAHSKEAYDKITHVLTILTDFLVQKIVELNSDDTNEKNSIVDKQNFLNLLAKFADSTVSFLTKDHITALYPYMVSDEKSDFHYYILQVFRCTFEKLANFKQKFLYDLETTLLSRLPKMNVREIDEAMPLIWSVATHRHDTARVAKACSSCLSHLHPYINKANNEEAAIVVDGKLQRLIYLSTGFARFCFPKPSNDKIAFLQEGETLYEHITKCLLVLSKDKITHVIRRVAVKNLTKLCGNHPKLFNSRHVLHLLDKEFQSDQLDIKLVILESLYDLFLLEERKSVRNTGVNSTLSSNSILKKKLLKTNRVEFANDGVCSALATRFLDNILQLCLLRDLKNSLVAIRLLKLILKFGYTNPSHSIPTVIALFASTSQYIRHVAYELLEDLFEKYETLVFSSLSRGVTKAIHYSIHTDEKYYYKHDHFLSLLEKLCGTGKKNGPKFFKVLKRIMQSYLDDITDLTSTNSSVQKSIFVLCTNISNITFVSQYDLVSLLKTIDLTTDRLKEVIMDEIGDNVSSLSVSEEKLSGIILIQLSLQDLGTYLLHLYGLRDDVLLLDIVEESELKNKQLPAKKPDISKFSAQLENIEQYSSNGKLLTYFRKHVKDT
– | ~70% | Scc2 T1175C (natural protein, S. cerevisiae, UniProt Q04002 1-1493, looked up, Scc2, S. cerevisiae; source: S. cerevisiae W303, in vivo, whole-cell extract) MSYPGKDKNIPGRIIEALEDLPLSYLVPKDGLAALVNAPMRVSLPFDKTIFTSADDGRDVNINVLGTANSTTSSIKNEAEKERLVFKRPSNFTSSANSVDYVPTNFLEGLSPLAQSVLSTHKGLNDSINIEKKSEIVSRPEAKHKLESVTSNAGNLSFNDNSSNKKTKTSTGVTMTQANLAEQYLNDLKNILDIVGFDQNSAEIGNIEYWLQLPNKKFVLTTNCLTKLQMTIKNITDNPQLSNSIEITWLLRLLDVMVCNIKFSKSSLKMGLDDSMLRYIALLSTIVLFNIFLLGKNDSNLHRESYIMEPVNFLSDLIESLKILTIEYGSLKIEFDTFQEALELLPKYIRNGPFLDDNVTAKLVYIFSDLLMNNDIEATTNIQFQSFWDNVKRISSDILVSLFGSFDQQRGFIIEELLSHIEKLPTKRIQKKLRKVGNQNIYITDFTFTLMSMLENINCYSFCNQMKDIAPENIDLLKNEYKKQEEFLFNIVEHINDTILERFFKNPSALRYVIDNFVQDLLLLISSPQWPVTEKILSSLLKRLLSVYSPSMQVSANIETICLQLIGNIGSTIFDIKCSTRDHEDNNLIKMINYPETLPHFFKSFEECIAYNETIKCRRSATRFLWNLRLGTILILEEYTKDAKEQIITVDNELKKILEQIKDGGLGPELENREADFSTIKLDYFSILHAFELLNLYDPYLKLILSLLAKDKIKLRSTAIKCLSMLASKDKVILSNPMVKETIHRRLNDSSASVKDAILDLVSINSSYFEFYQQINNNYNDDSIMVRKHVLRINEKMYDETNDIVTKVYVIARILMKIEDEEDNIIDMARLILLNRWILKVHEVLDQPEKLKEISSSVLLVMSRVAIMNEKCSQLFDLFLNFYLLNKEAHSKEAYDKITHVLTILTDFLVQKIVELNSDDTNEKNSIVDKQNFLNLLAKFADSTVSFLTKDHITALYPYMVSDEKSDFHYYILQVFRCTFEKLANFKQKFLYDLETTLLSRLPKMNVREIDEAMPLIWSVATHRHDTARVAKACSSCLSHLHPYINKANNEEAAIVVDGKLQRLIYLSTGFARFCFPKPSNDKIAFLQEGETLYEHITKCLLVLSKDKITHVIRRVAVKNLTKLCGNHPKLFNSRHVLHLLDKEFQSDQLDIKLVILESLYDLFLLEERKSVRNCGVNSTLSSNSILKKKLLKTNRVEFANDGVCSALATRFLDNILQLCLLRDLKNSLVAIRLLKLILKFGYTNPSHSIPTVIALFASTSQYIRHVAYELLEDLFEKYETLVFSSLSRGVTKAIHYSIHTDEKYYYKHDHFLSLLEKLCGTGKKNGPKFFKVLKRIMQSYLDDITDLTSTNSSVQKSIFVLCTNISNITFVSQYDLVSLLKTIDLTTDRLKEVIMDEIGDNVSSLSVSEEKLSGIILIQLSLQDLGTYLLHLYGLRDDVLLLDIVEESELKNKQLPAKKPDISKFSAQLENIEQYSSNGKLLTYFRKHVKDT
